Target: mini-procollagen III
Experiment: SPR
Settings: 50 nM CUB1CUB2*, read off a plot; for response: immobilized mini-procollagen III (437 RU), parent: est. 31; for percent of parent (% binding / WT): immobilized mini-procollagen III (437 and 651 RU), parent: est. 100

CUB1CUB2* domains of PCPE-2, WT (from MBP-CUB1CUB2, MBP removed), sequence (Q9UKZ9 whole entry, looked up, stated change not applied, tested part not stated): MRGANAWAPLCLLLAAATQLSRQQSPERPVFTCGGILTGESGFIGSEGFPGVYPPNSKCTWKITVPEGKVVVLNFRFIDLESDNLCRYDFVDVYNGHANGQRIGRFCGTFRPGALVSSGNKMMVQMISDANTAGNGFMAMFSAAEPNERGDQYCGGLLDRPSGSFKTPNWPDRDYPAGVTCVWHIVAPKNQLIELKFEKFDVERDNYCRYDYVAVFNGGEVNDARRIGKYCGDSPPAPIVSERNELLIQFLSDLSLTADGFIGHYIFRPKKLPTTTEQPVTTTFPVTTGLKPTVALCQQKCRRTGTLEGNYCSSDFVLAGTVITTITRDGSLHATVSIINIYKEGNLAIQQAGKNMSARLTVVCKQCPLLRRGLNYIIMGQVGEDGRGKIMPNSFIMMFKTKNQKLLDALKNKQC

Row | Substance | response | percent of parent (% binding / WT)
1 | CUB1CUB2* domains of PCPE-2, WT (from MBP-CUB1CUB2, MBP removed) (from UniProt Q9UKZ9) F87A | 1 RU | 2
2 | CUB1CUB2* domains of PCPE-2, WT (from MBP-CUB1CUB2, MBP removed) (from UniProt Q9UKZ9) K46A; E197A; R220A | 8.5 RU | 22
3 | CUB1CUB2* domains of PCPE-2, WT (from MBP-CUB1CUB2, MBP removed) (from UniProt Q9UKZ9) R150A | 27 RU | 97

From paper PMC10696041
